Laboratory results reported in the supplement of paper PMC9170038.

Test system: MS2 coat protein
Test: apparent KD of MS2 coat protein; designed switch direction (-1 OFF switch, 1 ON switch): 1; higher = weaker reporter binding
Summary of the method: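 Three titration conditions were used: no input, 200 uM small-molecule ligand, and an oligonucleotide input. In each, SNAP-549-labelled MS2 coat protein was raised from 0.7 or 1.5 nM, doubling, to 3 µM over designed RNA switches transcribed on Illumina chips by stalled E. coli RNA polymerase. Curve fits of normalised cluster fluorescence gave values whose per-design median over clusters is the apparent KD.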

[1] = input ligand: microRNA oligo, concentration not stated
[2] = Eterna round: R95, input ligand: FMN 200 uM
[3] = Eterna round: R95, input ligand: microRNA oligo, concentration not stated
[4] = Eterna round: R95, input ligand: none

| Sequence | apparent KD of MS2 coat protein (input ligand: FMN 200 uM) [µM] | apparent KD of MS2 coat protein [1] [µM] | apparent KD of MS2 coat protein (input ligand: none) [µM] | apparent KD of MS2 coat protein [2] [µM] | apparent KD of MS2 coat protein [3] [µM] | apparent KD of MS2 coat protein [4] [µM] |
| --- | --- | --- | --- | --- | --- | --- |
| AAAUAAAACACAGGAUAUGCAACCAAAACGGCGGCAGAAGGGUGAGACAUGAGGAUCACCCAUGUACACGUCCCACGGACGUGC [Arorraed] (Eterna round: R96, puzzle: Same State NG 1) | 0.392 | 0.00943 | 0.0884 | – | – | – |
| AAAUAAUAGGCAGGAUAUGGGAAAGGAAGUGUACCAGAAGGGCCGCAACUCAAUACAACAUGAGGAUCACCCAUGUUAGUGUCG [PowerStrip SSNG 1.5] (Eterna round: R96, puzzle: Same State NG 1) | 0.0102 | 0.0149 | 0.0157 | – | – | – |
| AACAAUCUAUCUGAGGAUAUCAUGAAAAAAACAUGAGGAUCACCCAUGUGCAGGAAAACUGCAUAUGAGAAGGCAGAUAGAUUGG [salish99_SS2_r3_003] (Eterna round: R96, puzzle: Same State 2) | – | 0.494 | – | – | – | – |
| AACAAUCUAUCUGAGGAUAUCAUGAAAAAAACAUGAGGAUCACCCAUGUGCAGGAAAACUGCAUAUGAGAAGGCAGAUAGAUUGG [salish99_SS2_r3_003] (puzzle: Same State 2) | – | – | – | 0.0232 | 0.589 | 0.814 |
| AACAAUCUAUCUGAGGAUAUCAUGAAAUAAACAUGAGGAUCACCCAUGUGCAGGAAAACUGCAUAUGAGAAGGCAGAUAGAUUGA [salish99_ss2_r3_x] (puzzle: Same State 2) | – | – | – | 0.0495 | 0.605 | 1.06 |
| AACAAUCUAUCUGAGGAUAUCAUGAAAUAUACAUGAGGAUCACCCAUGUGCAGGAAAACUGCAUAUGAGAAGGCAGAUAGAUUGA [salish99_ss2_r3_034] (puzzle: Same State 2) | – | – | – | 0.059 | 0.612 | 3.19 |
| AACAAUUUAUCUGAGGAUAUCAUGAAAUAAACAUGAGGAUCACCCAUGUGCAGGAAAACUGCAUAUGAGAAGGCAGAUAGAUUGA [salish99_ss2_r3_023] (puzzle: Same State 2) | – | – | – | 0.0535 | 0.821 | 1.89 |
| AACAGUCGGCGAGGAUAUGGACGUACAGGUUUGCCUGUGCGGCUCACAUGAGGAUCACCCAUGUUCUAGAAGGCGCCACUGAGA [Lausrein] (Eterna round: R96, puzzle: Same State NG 2) | 0.0199 | 0.0488 | 0.0812 | – | – | – |
| AACAUGAGGACAUGAACAUGAGGAUCACCCAUGUAUGUUUAUAAGGAUAUAUGAGGAGGAGGAGAAUAGAAGGUAUAGGGAGGG [This also seems to work] (Eterna round: R96, puzzle: Same State NG 3) | 0.045 | 0.0355 | 0.0432 | – | – | – |
| AACCCAAUGGAAGGAUAUGGCACCUUAUUGGUGCCAGAAGGUCCUAACAUGAGGAUCACCCAUGUGGGCCGGUCGAAAGACCGG [Fiskers NG1ss - 6] (Eterna round: R96, puzzle: Same State NG 1) | 0.106 | 0.306 | 0.656 | – | – | – |
| AACCGCGCAGAUGCGCGACAUGAGGAUCACCCAUGUGGCACACAGGAUAUCCUGAACAGCUAUUAGGAGAAGGGUGAAGGCCUC [Oredceti] (Eterna round: R96, puzzle: Same State NG 3) | 0.339 | 0.0451 | 0.127 | – | – | – |
| AAGAAAGUUUACGAGGAUAUGUUCCGCAUAACAUGAGGAUCACCCAUGUGAACAAGAAAGGCGACGCAGAAGGCGUGAGCAAAAG [Mat - Same State 2 - Mod of UCT - D97] (puzzle: Same State 2) | – | – | – | 0.105 | 0.199 | 0.412 |
| AAGAACAAGCGAAAGGCCCGUCUUAUAUAACAUGAGGAUCACCCAUGUAAGGUGAAAGUUAGAGAGUGGAGGUUGAA [JR_SHM208A_Sub047] (puzzle: Sensor for hsa-mir-208a) | – | – | – | 0.284 | 0.282 | 0.34 |
| AAGAUGCUCGUAGGAUAUUGGAAAGGAAGUGUACAAGAAGGACGGUGUCACAUGAGGAUCACCCAUGUUACAGUCUAAUGACUG [PowerStrip SSNG 1.1] (Eterna round: R96, puzzle: Same State NG 1) | 0.0187 | 0.0535 | 0.0614 | – | – | – |
| AAGCAUGAAAACAUGCAUAAAAAGUUUGUACAUGAGGAUCACCCAUGUAUGUGCAAGCUUUUUGCUCGUCUUGAAAA [JL SD Zipper 5] (Eterna round: R96, puzzle: Sensor for hsa-mir-208a) | 0.171 | 0.0174 | 0.171 | – | – | – |
| AAGCCUGUAGCACAGGAUAUCCGAGGCAAAACAUGAGGAUCACCCAUGUCAAACGAAAAUCCGAAGGAGAAGGGUGAACAGGCUC [Laarededqu] (puzzle: Same State 2) | – | – | – | 0.0109 | 0.00783 | 0.00824 |
| AAUAGUUGCGGGCAGGAUAUGUAUUAAAAUACAUGAGGAUCACCCAUGUGCGGGUAUAACACCCGACAGAAGGGCCAAUCGCGAC [Mat - Same State 2 - Mod of UCT - D94] (puzzle: Same State 2) | – | – | – | 0.0257 | 0.216 | 0.233 |
| AAUAUAUUAAGUGAGGAUAUCAUAGAAAAAACAUGAGGAUCACCCAUGUGGGAAACCUGGUCGGGUGAGAAGGCACUUAAUAUAU [Samwise Clockwise 29 - Jieux - Same State 2] (Eterna round: R96, puzzle: Same State 2) | 0.0852 | 0.823 | 1.28 | – | – | – |
| AAUAUUAAGGCGGACGUUAACCGCAACCGACAUGAGGAUCACCCAUGUGCUUCAAGCUCAGACAUCUCUUAUCGUCA [Arrizareat] (Eterna round: R96, puzzle: Sensor for hsa-mir-208a) | 0.0843 | 0.0594 | 0.079 | – | – | – |
| AAUUAAUUAAUUAAGUACAUGAGGAUCACCCAUGUAAGUGAUCAGGAUAUCAGCUCGUUUAGAGCUGAGAAGGGAUCCAUGUAC [SSNG3/15-A3] (Eterna round: R96, puzzle: Same State NG 3) | 0.359 | 0.297 | 0.404 | – | – | – |
| AAUUCAAACAGAGGAUAUUGUUUAUCUCUAUUGCAAGAAGGCUGAUCUUACUACCCACUUAUGAAACAUGAGGAUCACCCAUGU [JR_SSNG1_Sub018] (Eterna round: R96, puzzle: Same State NG 1) | – | 0.0301 | – | – | – | – |
| ACAAGCUUUUUGCUCAUCUUAUGUCCGAAACAUGAGGAUCACCCAUGUAUAGAUUAUGUGUUGUUGUAGAUACAAGA [JR_SHM208A_Sub063] (puzzle: Sensor for hsa-mir-208a) | – | – | – | 0.0227 | 0.0196 | 0.0283 |
| ACACUUGCACAUGAGGAUCACCCAUGUUGACAAGCUUUUUGCUCGUCUUAUAGAACAAAGAAGAAGAACAACAGAAA [Victory 2] (puzzle: Sensor for hsa-mir-208a version 2) | – | – | – | 0.0207 | 0.0179 | 0.0219 |
| ACAUGAAAUAGAGGAUAUUUUGUACCUACAUGUGACAUGAGGAUCACCCAUGUGGUAAGUAUGAGAAAGAAGGCUAAGAUAUGU [Equivalence 12 - Jieux - Same State NG 2] (Eterna round: R96, puzzle: Same State NG 2) | 0.0186 | 0.0303 | 0.0486 | – | – | – |
| ACAUGAGACCAAGGAUAUUUUGUACCUACAUGUGACAUGAGGAUCACCCAUGUGGUAAGUAUGAGGGAGAAGGUGGAGAUAUGU [Equivalence 24 - Jieux - Same State NG 2] (Eterna round: R96, puzzle: Same State NG 2) | 0.0543 | 0.0487 | 0.0737 | – | – | – |
| ACAUGAGACGUAGGAUAUAUUGUACCUACAUGUGACAUGAGGAUCACCCAUGUGGUAAGUAUGACAUAGAAGGACGAGAUAUGU [Equivalance 94 - Jieux - Same State NG 2] (Eterna round: R96, puzzle: Same State NG 2) | 0.0486 | 0.0497 | 0.0643 | – | – | – |
| ACAUGAGACUUAGGAUAUGUUGUACCUACAUGUGACAUGAGGAUCACCCAUGUGGUAAGUAUGAUACAGAAGGAAGAGAUAUGU [Equivalance 66 - Jieux - Same State NG 2] (Eterna round: R96, puzzle: Same State NG 2) | 0.0172 | 0.0275 | 0.0429 | – | – | – |
| ACAUGAGAGAUAGGAUAUCGUGUACCUACAUGUGACAUGAGGAUCACCCAUGUGGUAAGUAUGAGCGAGAAGGAUCAGAUAUGU [Equivalence 50 - Jieux - Same State NG 2] (Eterna round: R96, puzzle: Same State NG 2) | 0.0246 | 0.0431 | 0.0784 | – | – | – |
| ACAUGAGAUAGAGGAUAUAUUGUACCUACAUGUGACAUGAGGAUCACCCAUGUGGUAAGUAUGACAUAGAAGGCUGAGAUAUGU [Equivalance 83 - Jieux - Same State NG 2] (Eterna round: R96, puzzle: Same State NG 2) | 0.0698 | 0.0675 | 0.077 | – | – | – |
| ACAUGAGAUGGAGGAUAUUUUGUACCUACAUGUGACAUGAGGAUCACCCAUGUGGUAAGUAUGAGAAAGAAGGCCAAGAUAUGU [Equivalence 17 - Jieux - Same State NG 2] (Eterna round: R96, puzzle: Same State NG 2) | 0.0176 | 0.0184 | 0.0285 | – | – | – |
